# Measurements: patent US20230220042A1 (SHANGHAI JIAO TONG UNIVERSITY SCHOOL OF MEDICINE, published 2023)
# Changes are numbered by the printed parent chain. In names and notes the source's numbering stands.
# T1: Biotin-FcγRIIB (human, UniProt P31994 43-217, limits assumed, biotin-labelled)
# T1 construct: Bought, biotin-labelled; used at 1 µg/ml for staining and sorting; also called human FcγRIIB; CD32b
# T1 sequence (looked up): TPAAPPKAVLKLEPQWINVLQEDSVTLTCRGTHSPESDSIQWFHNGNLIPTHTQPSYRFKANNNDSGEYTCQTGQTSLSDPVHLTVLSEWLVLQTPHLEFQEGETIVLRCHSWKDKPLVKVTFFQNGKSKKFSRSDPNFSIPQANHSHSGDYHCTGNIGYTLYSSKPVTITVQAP
# B1: human IgG2 anti-mouse CD40 surface displayed antibody, Fc mutant P271G/T299S (antibody, name in EU numbering)
# light chain (with the P2A rest): DTVLTQSPALAVSPGERVTISCRASDSVSTLMHWYQQKPGQQPKLLIYLASHLESGVPARFSGSGSGTDFTLTIDPVEADDTATYYCQQSWNDPWTFGGGTKLELKRTVAAPSVFIFPPSDEQLKSGTASVVCLLNNFYPREAKVQWKVDNALQSGNSQESVTEQDSKDSTYSLSSTLTLSKADYEKHKVYACEVTHQGLSSPVTKSFNRGECGSGATNFSLLKQAGDVEENPG
# heavy chain: EVQLVESDGGLVQPGRSLKLPCAASGFTFSDYYMAWVRQAPTKGLEWVASISYDGSSTYYRDSVKGRFTISRDNAKSTLYLQMDSLRSEDTATYYCGRHSSYFDYWGQGVMVTVSSASTKGPSVFPLAPCSRSTSESTAALGCLVKDYFPEPVTVSWNSGALTSGVHTFPAVLQSSGLYSLSSVVTVPSSNFGTQTYTCNVDHKPSNTKVDKTVERKCCVECPPCPAPPVAGPSVFLFPPKPKDTLMISRTPEVTCVVVDVSHEDGEVQFNWYVDGVEVHNAKTKPREEQFNSSFRVVSVLTVVHQDWLNGKEYKCKVSNKGLPAPIEKTISKTKGQPREPQVYTLPPSREEMTKNQVSLTCLVKGFYPSDIAVEWESNGQPENNYKTTPPMLDSDGSFFLYSKLTVDKSRWQQGNVFSCSVMHEALHNHYTQKSLSLSPGKLEPPPSTVSNMATVAVLVVLGAAIVTGAVVAFVMKMRRRNTGGKGGDYALAPGSQTSDLSLPDCKVMVHDPHSLA
# notes: as m1; positions are Eu numbers; copies: 2 + 2
# B2: human IgG2 anti-mouse CD40 surface displayed antibody, Fc mutant S267M/P271G (antibody, name in EU numbering)
# light chain (with the P2A rest): B1 light chain (with the P2A rest)
# heavy chain: B1 heavy chain with S262M, S294T
# notes: as for B1
# B3: human IgG2 anti-mouse CD40 surface displayed antibody, Fc mutant V266A/P271G (antibody, name in EU numbering)
# light chain (with the P2A rest): B1 light chain (with the P2A rest)
# heavy chain: B1 heavy chain with V261A, S294T
# notes: as for B1
# B4: human IgG2 anti-mouse CD40 surface displayed antibody, Fc mutant P271G/T299W (antibody, name in EU numbering)
# light chain (with the P2A rest): B1 light chain (with the P2A rest)
# heavy chain: B1 heavy chain with S294W
# notes: as for B1
# B5: human IgG2 anti-mouse CD40 surface displayed antibody, Fc mutant P271G/S298N (antibody, name in EU numbering)
# light chain (with the P2A rest): B1 light chain (with the P2A rest)
# heavy chain: B1 heavy chain with S293N, S294T
# notes: as for B1
# B6: human IgG2 anti-mouse CD40 surface displayed antibody, Fc mutant S267A/P271G (antibody, name in EU numbering)
# light chain (with the P2A rest): B1 light chain (with the P2A rest)
# heavy chain: B1 heavy chain with S262A, S294T
# notes: as for B1
# B7: human IgG2 anti-mouse CD40 surface displayed antibody, Fc mutant G327L (antibody, name in EU numbering)
# light chain (with the P2A rest): B1 light chain (with the P2A rest)
# heavy chain: B1 heavy chain with G266P, S294T, G322L
# notes: as for B1
# B8: human IgG2 anti-mouse CD40 surface displayed antibody, Fc mutant G327S (antibody, name in EU numbering)
# light chain (with the P2A rest): B1 light chain (with the P2A rest)
# heavy chain: B1 heavy chain with G266P, S294T, G322S
# notes: as for B1
# B9: human IgG2 anti-mouse CD40 surface displayed antibody, Fc mutant L328N (antibody, name in EU numbering)
# light chain (with the P2A rest): B1 light chain (with the P2A rest)
# heavy chain: B1 heavy chain with G266P, S294T, L323N
# notes: as for B1
# B10: human IgG2 anti-mouse CD40 surface displayed antibody, Fc mutant L328V (antibody, name in EU numbering)
# light chain (with the P2A rest): B1 light chain (with the P2A rest)
# heavy chain: B1 heavy chain with G266P, S294T, L323V
# notes: as for B1
# B11: human IgG2 anti-mouse CD40 surface displayed antibody, Fc mutant L328R (antibody, name in EU numbering)
# light chain (with the P2A rest): B1 light chain (with the P2A rest)
# heavy chain: B1 heavy chain with G266P, S294T, L323R
# notes: as for B1
# B12: human IgG2 anti-mouse CD40 surface displayed antibody, Fc mutant L328G (antibody, name in EU numbering)
# light chain (with the P2A rest): B1 light chain (with the P2A rest)
# heavy chain: B1 heavy chain with G266P, S294T, L323G
# notes: as for B1
# B13: human IgG2 anti-mouse CD40 surface displayed antibody, Fc mutant H268S (antibody, name in EU numbering)
# light chain (with the P2A rest): B1 light chain (with the P2A rest)
# heavy chain: B1 heavy chain with H263S, G266P, S294T
# notes: as for B1
# Molecular target: Biotin-FcγRIIB (human) (UniProt P31994)
# Test: FACS sorting of displayed Fc library on biotin-FcγRIIB, NGS
row,Increased factor b Site 2 (point mutation/wild-type),Molecule
1,0.5,"human IgG2 anti-mouse CD40 surface displayed antibody, Fc mutant G236V"
2,0.6,"human IgG2 anti-mouse CD40 surface displayed antibody, Fc mutant T299S"
3,1.6,"human IgG2 anti-mouse CD40 surface displayed antibody, Fc mutant I332T"
4,0.4,"human IgG2 anti-mouse CD40 surface displayed antibody, Fc mutant P271W"
5,1.2,"human IgG2 anti-mouse CD40 surface displayed antibody, Fc mutant S298G"
6,1.6,"human IgG2 anti-mouse CD40 surface displayed antibody, Fc mutant S298D"
7,1.3,"human IgG2 anti-mouse CD40 surface displayed antibody, Fc mutant D270H"
8,0.5,"human IgG2 anti-mouse CD40 surface displayed antibody, Fc mutant T299W"
9,0.4,"human IgG2 anti-mouse CD40 surface displayed antibody, Fc mutant T299A"
10,1.2,"human IgG2 anti-mouse CD40 surface displayed antibody, Fc mutant P329S"
11,0.8,"human IgG2 anti-mouse CD40 surface displayed antibody, Fc mutant S298R"
12,1.1,"human IgG2 anti-mouse CD40 surface displayed antibody, Fc mutant I332E"

# Molecular target: T1, Biotin-FcγRIIB
# Test: FACS sorting of displayed Fc library on biotin-FcγRIIB, NGS; reference P271G
Increased factor 2 c Site 1 (combined/point mutation),Increased factor 2 c Site 2 (combined/point mutation),Molecule
3.4,–,B1
–,1.6,B2
–,3.2,B3
2.6,–,B4
5.1,–,B5
–,1.9,B6

# Molecular target: T1, Biotin-FcγRIIB
# Test: FACS sorting of displayed Fc library on biotin-FcγRIIB, NGS
Enrichment factor (after/before sorting),Increased factor a (enrichment factor/wild-type enrichment factor),Molecule
12,16,B1
4.31,7.52,B2
8.63,15,B3
9.23,12.3,B4
18,24,B5
5.27,9.19,B6

# Molecular target: T1, Biotin-FcγRIIB
# Test: magnetic sorting on biotin-FcγRIIB with unlabelled activating FcγRs, NGS; Library4
# Procedure: (§1) 3T3 cells were collected by trypsin digestion, and a single cell suspension was prepared. […] The cells were incubated for 15 minutes on ice and then washed twice with MACS buffer and re-suspended in 100 μl MACS buffer. Twenty-five μl anti-Biotin magnetic beads were added, and the cells were incubated for 15 minutes on ice and then washed once with MACS buffer and re-suspended to 500 μl, and added to the LS column put in the magnetic field. The effluent was collected, washed with 3 mL of MACS buffer and collected; The LS column was then removed out of the magnetic field, and 5 mL of MACS buffer was used to rapidly elute the remaining cells from the sorting column to collect positive cells, which are the high I/A ratio cells.
# The high-FcγRIIB-affinity cells obtained from the above flow cytometry sorting are further sorted by magnetic-activated sorting. The cells are incubated with the mixture of Biotin-labeled FcγRIIB and non-labeled activating FcγRs, and then the labeled cells are sorted by anti-Biotin magnetic beads. The enrichment ratios after sorting relative to before sorting are analyzed by NGS.
Enrichment factor (percentage after sorting/percentage before sorting),Increased factor (mutation enrichment factor/wild-type enrichment factor),Percentage after sorting/unbinding percentage,Percentage before sorting/unbinding percentage,Molecule
3.77,4.28,3.8,1.01,B7
6.9,7.84,71.2,10.3,B8
2.73,3.11,50.9,18.6,B9

# Molecular target: T1, Biotin-FcγRIIB
# Test: magnetic sorting on biotin-FcγRIIB with unlabelled activating FcγRs, NGS; LibraryMix #3
# Procedure: as §1
Enrichment factor (percentage after sorting/percentage before sorting),Increased factor (mutation enrichment factor/wild-type enrichment factor),Percentage after sorting/unbinding percentage,Percentage before sorting/unbinding percentage,Molecule
2.31,2.04,25.4,11,B10
5.3,4.69,30.8,5.82,B11
3.01,2.67,–,–,B12
2.31,2.04,11.9,5.17,B5
7.85,6.95,–,–,B13
